The series deals with the molecule itself. Description: SEC. For orientation: In gel filtration, larger molecules generally elute earlier.

Where “and” joins values, the source holds several entries; their conditions need not be identical. Identical values can stand only once.

B1: syndecan-4 cytoplasmic tail peptide, PIP2- mutant (Y192KK to LQQ) (peptide, UniProt P34901 175-202, looked up)
peptide: RMKKKDEGSYDLGKKPILQQAPTNEFYA
For the protein B1, the “stoichiometry N” value is 4 and 6.

For orientation: stoichiometry N means a count of units in the complex or per binding partner.

The record behind these values is article PMC2173870 (The Journal of Cell Biology, 2002).
